This is an account of results in doi:10.1101/2024.07.01.601590.

The test addresses Fluorescently labelled Asgard ESCRT-IIIB (Heimdallarchaeota archaeon AB_125), full length (Heimdallarchaeota archaeon AB_125). Put plainly: TIRF microscopy on supported lipid bilayers.

For “Fluorescently labelled Asgard ESCRT-IIIA (Heimdallarchaeota archaeon AB_125), full length (natural protein)”, the time to reach plateau amounted to 160 s.
On to “Fluorescently labelled Asgard ESCRT-IIIB (Heimdallarchaeota archaeon AB_125), full length (natural protein)”, for which the time to reach plateau is > 1000 s.
